This passage reports binding signal results from article PMC7946914, “easyCLIP analysis of RNA-protein interactions incorporating absolute quantification”.

Numbering of substitutions follows the chain as printed.

Test in all cases: fluorescence polarization; FP with 3' 6-FAM RNA; PCBP1 RNA diluted to 50 nM in PCBP binding buffer; buffer composition, pH and temperature not in the material
(In general: Fluorescence polarisation rises when a labelled molecule tumbles more slowly, as on binding a larger partner.)

In one series the target is T1, KHDRBS2 R168C (UniProt Q5VWX1 1-349, R168C).
T1 sequence: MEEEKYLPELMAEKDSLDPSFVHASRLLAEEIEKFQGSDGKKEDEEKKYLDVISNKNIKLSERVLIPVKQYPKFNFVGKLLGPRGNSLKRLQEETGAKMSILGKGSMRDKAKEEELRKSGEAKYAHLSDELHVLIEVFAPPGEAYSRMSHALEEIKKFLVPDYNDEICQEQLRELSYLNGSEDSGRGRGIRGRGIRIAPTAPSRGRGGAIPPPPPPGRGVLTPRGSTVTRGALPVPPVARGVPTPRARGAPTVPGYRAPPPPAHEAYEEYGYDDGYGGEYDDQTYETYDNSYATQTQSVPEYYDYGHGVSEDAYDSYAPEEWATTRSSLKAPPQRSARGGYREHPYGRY
The note with it: protein: recombinant; chain copies: 2; label: 3' 6-FAM; single-stranded.

The target of a further series is T2, KHDRBS2 WT (UniProt Q5VWX1 1-349).
T2 sequence: T1 sequence with C168R
To be noted: protein: recombinant; chain copies: 2; label: 3' 6-FAM; single-stranded.

In a further series the target is T3, A1CF WT (human?, UniProt Q9NQ94 1-594).
T3 sequence: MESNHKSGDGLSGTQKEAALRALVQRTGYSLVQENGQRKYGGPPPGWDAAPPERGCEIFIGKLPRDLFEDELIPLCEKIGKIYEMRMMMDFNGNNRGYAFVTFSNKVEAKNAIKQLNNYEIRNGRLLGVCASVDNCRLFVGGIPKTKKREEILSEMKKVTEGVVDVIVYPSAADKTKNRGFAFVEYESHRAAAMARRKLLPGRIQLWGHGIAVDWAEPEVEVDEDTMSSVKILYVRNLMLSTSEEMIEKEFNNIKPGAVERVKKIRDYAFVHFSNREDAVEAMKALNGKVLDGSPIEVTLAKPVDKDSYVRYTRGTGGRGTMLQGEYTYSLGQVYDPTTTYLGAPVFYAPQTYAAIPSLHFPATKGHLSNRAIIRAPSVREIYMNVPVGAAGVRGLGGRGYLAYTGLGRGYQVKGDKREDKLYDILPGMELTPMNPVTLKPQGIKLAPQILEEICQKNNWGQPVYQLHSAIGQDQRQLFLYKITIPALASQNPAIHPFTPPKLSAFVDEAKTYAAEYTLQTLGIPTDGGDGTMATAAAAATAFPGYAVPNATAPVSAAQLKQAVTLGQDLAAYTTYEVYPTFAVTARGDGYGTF
To be noted: protein: recombinant; label: 3' 6-FAM; single-stranded.

Another series has as its target T4, A1CF E34K (human?, UniProt Q9NQ94 1-594, E34K).
T4 sequence: T3 sequence with E34K
The note with it: protein: recombinant; label: 3' 6-FAM; single-stranded.

With AUUAAAUUAAAUUU (ssRNA) [AU-rich RNA (A1CF and KHDRBS2)], the binding signal is roughly 2 fold affinity vs WT in the series with KHDRBS2 R168C, 1 fold (reference) with KHDRBS2 WT, 1 fold (reference) with A1CF WT and roughly 2 fold affinity vs WT in the series with A1CF E34K.
